In patent publication US20220267379A1 (published 2022):
Where two headings read alike, the source gives them in different places. Positions of bridges follow the written chain, without caps; N, C: chain ends. Non-standard residues stand in square brackets, D forms with d. Primed or numbered codes have the meaning given here. Chains are numbered I, II in the order given. No end group written: not given here. *: point of attachment. Palmitoyl = CCCCCCCCCCCCCCCC(=O)*; PEG2″ = not defined here

How the values were obtained:
trypsin = trypsin (human); test: enzyme inhibition
FXIIa (Factor XIIa) = molecular target: T1, FXIIa (Factor XIIa) (human, UniProt P00748 373-615)
T1 chain: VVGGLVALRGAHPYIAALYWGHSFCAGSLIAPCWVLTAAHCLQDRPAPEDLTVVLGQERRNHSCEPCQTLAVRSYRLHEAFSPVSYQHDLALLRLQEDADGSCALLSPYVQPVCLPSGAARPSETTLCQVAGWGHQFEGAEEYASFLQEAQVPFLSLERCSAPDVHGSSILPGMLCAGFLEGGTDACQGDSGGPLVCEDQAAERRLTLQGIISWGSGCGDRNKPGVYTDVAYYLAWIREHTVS

[1] = molecular target: human Kallikrein-related peptidase 5 (hKLK5) (human, UniProt Q9Y337 67-293); test: enzyme inhibition
Sequence of human Kallikrein-related peptidase 5 (hKLK5) (Q9Y337 67-293): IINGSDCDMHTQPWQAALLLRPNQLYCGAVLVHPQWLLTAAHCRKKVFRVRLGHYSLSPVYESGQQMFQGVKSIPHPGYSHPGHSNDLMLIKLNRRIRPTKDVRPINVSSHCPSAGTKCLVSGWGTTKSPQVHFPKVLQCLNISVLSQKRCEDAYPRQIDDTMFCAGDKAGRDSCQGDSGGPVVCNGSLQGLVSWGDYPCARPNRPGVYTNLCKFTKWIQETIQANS

[2] = molecular target: T2, mouse serum albumin (MSA) (mouse, UniProt P07724 25-608); test: fluorescence polarization
T2 sequence (P07724 25-608): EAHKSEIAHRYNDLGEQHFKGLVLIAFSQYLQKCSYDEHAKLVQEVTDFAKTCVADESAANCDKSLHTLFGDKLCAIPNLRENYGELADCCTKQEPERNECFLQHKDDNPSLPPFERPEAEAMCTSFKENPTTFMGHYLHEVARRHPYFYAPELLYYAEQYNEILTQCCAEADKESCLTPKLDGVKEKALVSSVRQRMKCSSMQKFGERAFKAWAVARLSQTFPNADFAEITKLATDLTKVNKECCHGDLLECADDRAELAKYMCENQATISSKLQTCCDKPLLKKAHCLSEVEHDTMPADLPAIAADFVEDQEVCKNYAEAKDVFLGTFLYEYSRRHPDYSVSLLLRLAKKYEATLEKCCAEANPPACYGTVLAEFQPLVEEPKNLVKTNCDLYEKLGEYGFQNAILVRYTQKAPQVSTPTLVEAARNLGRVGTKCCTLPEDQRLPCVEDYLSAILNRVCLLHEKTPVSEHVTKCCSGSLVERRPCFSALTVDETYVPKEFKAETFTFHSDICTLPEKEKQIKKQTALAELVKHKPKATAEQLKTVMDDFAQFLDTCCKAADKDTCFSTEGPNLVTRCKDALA

uPA = test: enzyme inhibition
PK = test: enzyme inhibition
thrombin = test: enzyme inhibition
tPA = test: enzyme inhibition
plasmin = test: enzyme inhibition
[3] = molecular target: T2, mouse serum albumin (MSA)
[4] = molecular target: human serum albumin (HSA) (human, UniProt P02768 25-609); test: fluorescence polarization; human serum dilution

## GCTRQYPC (linker 2-8 via 1,3‑dibromoacetone) [peptide 035 (lead KLK5 inhibitor)]
trypsin
  Ki: 60 µM
FXIIa (Factor XIIa)
  Ki: 43 µM
[1]
  Ki: 0.01 µM

B1: KLK5 inhibitor 035-tag (C-terminal albumin tag conjugate of 035) (peptide)
peptide 1: GCTRQYPCGKG
peptide 2: EYEK(Palmitoyl)EYE
modifications: bridge I:2-I:8; not fully specified (N-terminus, C-terminus, bridges); also: albumin tag (chain 2) joined via PEG2 to side chain of Lys10 of chain 1, tag end used not given here, N-terminal fluorescein via PEG2, chain not given here
[2]
  Kd: 7 µM

## GCTRQYPC (linker 2-8 via 1,3‑dibromoacetone) [peptide 035]
uPA
  Ki: > 100 µM
PK
  Ki: > 100 µM
thrombin
  Ki: > 100 µM
tPA
  Ki: > 100 µM
plasmin
  Ki: > 100 µM

## EYEK(Palmitoyl)EYE-fluorescein [albumin tag with fluorescein at the C-terminus (tag-F)]
[3]
  Kd: 7.9 µM

B2: SSSKSSS-tag (peptide)
peptide: SSSKSSS
modifications: not fully specified (residue 4, N-terminus); also: fluorescein as in the albumin tag
[2]
  Kd: 10.1 µM

B3: N-terminal albumin tag conjugate of KLK7 inhibitor 096 (peptide)
peptide 1: EYEK(Palmitoyl)EYE[PEG2″]
peptide 2: PCLYLARCS
modifications: bridge II:2-II:8; not fully specified (N-terminus, bridges); also: tag C-terminus joined through PEG2 to inhibitor N-terminus (one linear molecule)
[4]
  Kd: 0.168 µM

B4: N-terminal albumin tag conjugate of KLK5 inhibitor 035 (peptide)
peptide 1: EYEK(Palmitoyl)EYE[PEG2″]
peptide 2: GCTRQYPC
modifications: bridge II:2-II:8; not fully specified (N-terminus, bridges); also: tag C-terminus joined through PEG2 to inhibitor N-terminus (one linear molecule)
[4]
  Kd: 0.118 µM
